# Measured values reported in patent US11078259B2, “Methods and compositions for promoting thermogenic potential” (Joslin Diabetes Center, Inc., priority 2015, dated 2021).
# “Also recorded” adds a separate entry of the source.
# B1: BMP7: Recombinant human BMP7, an inducer of brown adipogenesis (protein, UniProt P18075 293-431, looked up)
# Bone morphogenetic protein 7: STGSKQRSQNRSKTPKNQEALRMANVAENSSSDQRQACKKHELYVSFRDLGWQDWIIAPEGYAAYYCEGECAFPLNSYMNATNHAIVQTLVHFINPETVPKPCCAPTQLNAISVLYFDDSSNVILKKYRNMVVRACGCH
# Legend:
# [1] = test system: hBAT progenitors with hUCP1-promoter-Luc/GFP; assay: Transplantation of UCP1 reporter progenitors into nude mice, in vivo bioluminescent imaging; design: species or system BALB/c athymic nude mice; conditions: mice implanted with hBAT progenitors; 3.3 nM BMP7 pretreatment of progenitors 6 days
# Excerpt: FIG. 7A depicts a transgenic UCP1 reporter system for measuring UCP1 gene expression. A bicistronic luciferase and green fluorescent protein (GFP) reporter was coupled to a 4.1 kb human UCP1 promoter fragment. FIG. 7B depicts the organization of plasmid pLV.ExBi.P/Puro-hUCP1promoter-Luc(firefly)-T2A-hrGFP, which contains the UCP1 reporter system described in FIG. 7A. FIG. 7C depicts time-lapse microscopy of differentiating hBAT-SVF cells containing the UCP1 reporter system. UCP1 expression was monitored by visualization of GFP. FIG. 7D depicts that in hBAT-SVF and hWAT-SVF cells stably expressing the reporter construct, luciferase activity (Right) was strongly correlated with endogenous UCP1 gene expression (Left) during the course of differentiation (see FIG. 2A and Methods). For determination of UCP1 mRNA levels, total RNAs were isolated on day 0, 2, 3, 5, 9, 12, 15 and 18; for luciferase activity assay, cell lysates were collected on day 0, 6, 9 and 18. Data are presented as fold changes compared to hWAT-SVF on day 0 (mean±s.e.m., n=3). […]
# Human immortalized white and brown fat progenitors with hUCP1-promoter-Luc/GFP were grown in the presence and absence of 3.3 nM BMP7 for 6 days to reach confluence. […] The luminescence intensity in regions of interest from each image was quantified to examine the viability of the implanted cells. […]
# [2] = test system: hWAT-SVF and hBAT-SVF progenitors; assay: BMP pre-treatment of progenitors, Q-RT-PCR for UCP1 and PPARγ in mature adipocytes; assay type: cell-based, human
molecule,measurement,setting,value
B1,luciferase activity (UCP1 reporter) in vivo,[1],further induced; also recorded: increased further
same,UCP1 expression in mature adipocytes,"[2]; hWAT-SVF from both subjects and hBAT-SVF from Subject 2, 3.3 nM BMP7 pre-exposure 6 days",increased
same,PPARγ expression,"[2]; mature brown adipocytes from Subject 2 only, BMP7 pretreatment",augmented
